B1: Hammerhead Ribozyme (parent)
chain: ACCGGAUGUGCUUUCCGGUCUGAUGAGUCCGUGAGGACGAAACAG

The variants in this series derive from B1. The experiment in a line: self-cleavage, relative activity (ratio to wild type); higher = more cleavage; co-transcriptional.
In the case of ACCGGUUGUGCUUUCCGGUCUGAUGAGCCCGUGAGGACGAAACAG [A6U U28C], the self-cleavage is 0.638.
Turning to ACCGGUUGUGCUUUCCGGUCUGAUGAGACCGUGAGGACGAAACAG [A6U U28A], the self-cleavage came to 0.377.
Turning to ACCGGUUGUGCUUUCCGGUCUGAUGAGGCCGUGAGGACGAAACAG [A6U U28G], the self-cleavage stood at 0.373.
Then ACCGGUUGUGCUUUCCGGUCUGAUGAGUCCGUGAGAACGAAACAG [A6U G36A], with 0.44.
In the case of ACCGGUUGUGCUUUCCGGUCUGAUGAGUCCGUGAGUACGAAACAG [A6U G36U] it was 0.391.
Consider ACCGGUUGUGCUUUCCGGUCUGAUGAGUCCGUGAGCACGAAACAG [A6U G36C], for which the self-cleavage turned out to be 0.334.
In the case of ACCGGUUGUACUUUCCGGUCUGAUGAGUCCGUGAGGACGAAACAG [A6U G10A] it was 0.75; in that of ACCGGUUGUUCUUUCCGGUCUGAUGAGUCCGUGAGGACGAAACAG [A6U G10U], 0.747.
On to ACCGGUUGUCCUUUCCGGUCUGAUGAGUCCGUGAGGACGAAACAG [A6U G10C], for which the self-cleavage is 0.522.
ACCGGUUGUGCUUUCCGGUCUGAUGAGUCCGGGAGGACGAAACAG [A6U U32G]: the self-cleavage was determined as 0.559.
For ACCGGUUGUGCUUUCCGGUCUGAUGAGUCCGCGAGGACGAAACAG [A6U U32C], the self-cleavage came to 0.988.
Take ACCGGUUGUGCUUUCCGGUCUGAUGAGUCCGAGAGGACGAAACAG [A6U U32A]: the self-cleavage is 0.605.
In the case of ACCGGUUGUGCCUUCCGGUCUGAUGAGUCCGUGAGGACGAAACAG [A6U U12C] it was 0.716; in that of ACCGGUUGUGCAUUCCGGUCUGAUGAGUCCGUGAGGACGAAACAG [A6U U12A], 0.538.
On to ACCGGUUGUGCGUUCCGGUCUGAUGAGUCCGUGAGGACGAAACAG [A6U U12G], for which the self-cleavage came out at 0.447.
In the case of ACCGGUUGUGCUUUCCGGACUGAUGAGUCCGUGAGGACGAAACAG [A6U U19A] it was 0.337.
Consider ACCGGUUGUGCUUUCCGGGCUGAUGAGUCCGUGAGGACGAAACAG [A6U U19G], for which the self-cleavage is 0.395.
In the case of ACCGGUUGUGCUUUCCGGCCUGAUGAGUCCGUGAGGACGAAACAG [A6U U19C], the self-cleavage worked out at 0.47.
As for ACCGGUUGUGCUUUCCGGUCUGAUGAGUCCGUAAGGACGAAACAG [A6U G33A], the self-cleavage was found to be 0.793.
In the case of ACCGGUUGUGCUUUCCGGUCUGAUGAGUCCGUCAGGACGAAACAG [A6U G33C] it was 0.551; in that of ACCGGUUGUGCUUUCCGGUCUGAUGAGUCCGUUAGGACGAAACAG [A6U G33U], 0.403; in that of ACCGGUUGUGCUUUCCGGUCUGAAGAGUCCGUGAGGACGAAACAG [A6U U24A], 0.494.
Take ACCGGUUGUGCUUUCCGGUCUGAGGAGUCCGUGAGGACGAAACAG [A6U U24G]: the self-cleavage was 0.642.
In the case of ACCGGUUGUGCUUUCCGGUCUGACGAGUCCGUGAGGACGAAACAG [A6U U24C] it was 0.573; in that of ACCGGUUGUGCUUUCCGGUCUGAUGAGUCCGUGAAGACGAAACAG [A6U G35A], 0.505.
In the case of ACCGGUUGUGCUUUCCGGUCUGAUGAGUCCGUGAUGACGAAACAG [A6U G35U] it was 0.499.
On to ACCGGUUGUGCUUUCCGGUCUGAUGAGUCCGUGACGACGAAACAG [A6U G35C], for which the self-cleavage turned out to be 0.473.
ACCGGAAGUGCUUUCCGGUCUGAUGAGUCCGUGAGGACGAACCAG [U7A A42C]: the self-cleavage is 0.358.
Then ACCGGAAGUGCUUUCCGGUCUGAUGAGUCCGUGAGGACGAAGCAG [U7A A42G], with 0.216; and ACCGGAAGUGCUUUCCGGUCUGAUGAGUCCGUGAGGACGAAUCAG [U7A A42U], with 0.257; and ACCGGAAGUGCUUUCCGGUCUGAUGAGUCCGUGAGGACGGAACAG [U7A A40G], with 0.298.
Consider ACCGGAAGUGCUUUCCGGUCUGAUGAGUCCGUGAGGACGUAACAG [U7A A40U], for which the self-cleavage is 0.244.
On to ACCGGAAGUGCUUUCCGGUCUGAUGAGUCCGUGAGGACGCAACAG [U7A A40C], for which the self-cleavage worked out at 0.261.
As to ACCGGAAGUGCUUUCCGGUCUGAUGAGUCCGUGAGGACGAUACAG [U7A A41U], the self-cleavage stood at 0.258.
For ACCGGAAGUGCUUUCCGGUCUGAUGAGUCCGUGAGGACGACACAG [U7A A41C], the self-cleavage was found to be 0.407.
In the case of ACCGGAAGUGCUUUCCGGUCUGAUGAGUCCGUGAGGACGAGACAG [U7A A41G] it was 0.368; in that of ACCGGUUGUGCUUUCCGGUCUGAUGAGUCCGUGAGGAGGAAACAG [A6U C38G], 0.458; in that of ACCGGUUGUGCUUUCCGGUCUGAUGAGUCCGUGAGGAUGAAACAG [A6U C38U], 0.627.
In the case of ACCGGAAGUGAUUUCCGGUCUGAUGAGUCCGUGAGGACGAAACAG [U7A C11A] it was 1.55.
Then ACCGGAAGUGGUUUCCGGUCUGAUGAGUCCGUGAGGACGAAACAG [U7A C11G], with 1.52; and ACCGGAAGUGUUUUCCGGUCUGAUGAGUCCGUGAGGACGAAACAG [U7A C11U], with 1.4; and ACCGGAAGUGCUUUCCGGUGUGAUGAGUCCGUGAGGACGAAACAG [U7A C20G], with 0.376.
As for ACCGGAAGUGCUUUCCGGUUUGAUGAGUCCGUGAGGACGAAACAG [U7A C20U], the self-cleavage turned out to be 0.345.
As to ACCGGAAGUGCUUUCCGGUAUGAUGAGUCCGUGAGGACGAAACAG [U7A C20A], the self-cleavage is 0.298.
In the case of ACCGGUUGUGCUUUCCGAUCUGAUGAGUCCGUGAGGACGAAACAG [A6U G18A] it was 0.34; in that of ACCGGUUGUGCUUUCCGCUCUGAUGAGUCCGUGAGGACGAAACAG [A6U G18C], 0.395; in that of ACCGGUUGUGCUUUCCGUUCUGAUGAGUCCGUGAGGACGAAACAG [A6U G18U], 0.344.
With ACCGGAAGUGCUUUCCGGUCUGAUGAGUCCGUGAGGACGAAACCG [U7A A44C], the self-cleavage came out at 0.397.
In the case of ACCGGAAGUGCUUUCCGGUCUGAUGAGUCCGUGAGGACGAAACGG [U7A A44G], the self-cleavage came to 1.46.
Then ACCGGAAGUGCUUUCCGGUCUGAUGAGUCCGUGAGGACGAAACUG [U7A A44U], with 0.375.
In the case of ACCGGUUGUGCUUUCCGGUCUGAUGAUUCCGUGAGGACGAAACAG [A6U G27U] it was 0.395; in that of ACCGGUUGUGCUUUCCGGUCUGAUGACUCCGUGAGGACGAAACAG [A6U G27C], 0.552.
In the case of ACCGGUUGUGCUUUCCGGUCUGAUGAAUCCGUGAGGACGAAACAG [A6U G27A] it was 0.614.
As for ACCGGUUGUGCUUUCCGGUCUGAUGAGUCCGUGAGGACGAAAAAG [A6U C43A], the self-cleavage stood at 0.326.
Turning to ACCGGUUGUGCUUUCCGGUCUGAUGAGUCCGUGAGGACGAAAGAG [A6U C43G], the self-cleavage is 0.342.
In the case of ACCGGUUGUGCUUUCCGGUCUGAUGAGUCCGUGAGGACGAAAUAG [A6U C43U] it was 0.368; in that of ACCGGUUGUGCUUUCCGGUCUGAUGAGUCCUUGAGGACGAAACAG [A6U G31U], 0.889.

For the origin of these results see the RNAGym collection of RNA variant scans (doi:10.7554/elife.80360).
